We go through one substance from article PMC8881592.

The nature of the data set: time-resolved SAXS; rSslE 0.7 mg/ml in 20 mM citrate-phosphate buffer pH 4.4, 25 °C, stirred and circulated, data every 30 min over 11 h; COSMiCS decomposition into monomer and aggregate. Particulars: other: time-resolved SAXS.

Turning to “recombinant SslE from E. coli W (rSslE; residues 67 to 1497)”, the “molar fraction of the aggregated species after 30 min” value is “the aggregated species already represented 50% of the molar fraction”.
